Measurements taken from the Human Domainome abundance scans (Beltran et al. 2025).
± gives the uncertainty stated by the source.

Test: abundance fitness (aPCA) (normalised: wild type 0, dead -1); higher = more abundant; growth selection in yeast, the domain comes from the species named
Conditions: Homo sapiens

Substance	abundance fitness
Lipoamide acyltransferase component of branched-chain alpha-keto acid dehydrogenase complex, mitochondrial K202V, P11182	-0.105 ± 0.044
Lipoamide acyltransferase component of branched-chain alpha-keto acid dehydrogenase complex, mitochondrial K202W, P11182	-0.276 ± 0.056
Lipoamide acyltransferase component of branched-chain alpha-keto acid dehydrogenase complex, mitochondrial K211A, P11182	0.066 ± 0.043
Lipoamide acyltransferase component of branched-chain alpha-keto acid dehydrogenase complex, mitochondrial K211C, P11182	-0.056 ± 0.053
Lipoamide acyltransferase component of branched-chain alpha-keto acid dehydrogenase complex, mitochondrial K211D, P11182	-0.076 ± 0.053
Lipoamide acyltransferase component of branched-chain alpha-keto acid dehydrogenase complex, mitochondrial K211E, P11182	-0.045 ± 0.039
Lipoamide acyltransferase component of branched-chain alpha-keto acid dehydrogenase complex, mitochondrial K211F, P11182	-0.232 ± 0.065
Lipoamide acyltransferase component of branched-chain alpha-keto acid dehydrogenase complex, mitochondrial K211G, P11182	0.007 ± 0.037
Lipoamide acyltransferase component of branched-chain alpha-keto acid dehydrogenase complex, mitochondrial K211H, P11182	-0.041 ± 0.052
Lipoamide acyltransferase component of branched-chain alpha-keto acid dehydrogenase complex, mitochondrial K211I, P11182	-0.122 ± 0.061
Lipoamide acyltransferase component of branched-chain alpha-keto acid dehydrogenase complex, mitochondrial K211L, P11182	-0.115 ± 0.043
Lipoamide acyltransferase component of branched-chain alpha-keto acid dehydrogenase complex, mitochondrial K211M, P11182	-0.073 ± 0.051
Lipoamide acyltransferase component of branched-chain alpha-keto acid dehydrogenase complex, mitochondrial K211N, P11182	-0.058 ± 0.092
Lipoamide acyltransferase component of branched-chain alpha-keto acid dehydrogenase complex, mitochondrial K211P, P11182	-0.093 ± 0.048
Lipoamide acyltransferase component of branched-chain alpha-keto acid dehydrogenase complex, mitochondrial K211Q, P11182	-0.024 ± 0.044
Lipoamide acyltransferase component of branched-chain alpha-keto acid dehydrogenase complex, mitochondrial K211R, P11182	0.043 ± 0.037
Lipoamide acyltransferase component of branched-chain alpha-keto acid dehydrogenase complex, mitochondrial K211S, P11182	-0.044 ± 0.04
Lipoamide acyltransferase component of branched-chain alpha-keto acid dehydrogenase complex, mitochondrial K211T, P11182	-0.041 ± 0.056
Lipoamide acyltransferase component of branched-chain alpha-keto acid dehydrogenase complex, mitochondrial K211V, P11182	-0.049 ± 0.045
Lipoamide acyltransferase component of branched-chain alpha-keto acid dehydrogenase complex, mitochondrial K211W, P11182	-0.206 ± 0.047
Lipoamide acyltransferase component of branched-chain alpha-keto acid dehydrogenase complex, mitochondrial K211Y, P11182	-0.157 ± 0.1
Lipoamide acyltransferase component of branched-chain alpha-keto acid dehydrogenase complex, mitochondrial L172A, P11182	-0.327 ± 0.053
Lipoamide acyltransferase component of branched-chain alpha-keto acid dehydrogenase complex, mitochondrial L172C, P11182	-0.243 ± 0.079
Lipoamide acyltransferase component of branched-chain alpha-keto acid dehydrogenase complex, mitochondrial L172D, P11182	-0.237 ± 0.076

Substance	abundance fitness
Lipoamide acyltransferase component of branched-chain alpha-keto acid dehydrogenase complex, mitochondrial L172E, P11182	-0.107 ± 0.061
Lipoamide acyltransferase component of branched-chain alpha-keto acid dehydrogenase complex, mitochondrial L172F, P11182	-0.195 ± 0.085
Lipoamide acyltransferase component of branched-chain alpha-keto acid dehydrogenase complex, mitochondrial L172G, P11182	-0.681 ± 0.051
Lipoamide acyltransferase component of branched-chain alpha-keto acid dehydrogenase complex, mitochondrial L172H, P11182	-0.052 ± 0.091
Lipoamide acyltransferase component of branched-chain alpha-keto acid dehydrogenase complex, mitochondrial L172I, P11182	-0.047 ± 0.066
Lipoamide acyltransferase component of branched-chain alpha-keto acid dehydrogenase complex, mitochondrial L172K, P11182	-0.004 ± 0.048
Lipoamide acyltransferase component of branched-chain alpha-keto acid dehydrogenase complex, mitochondrial L172M, P11182	-0.063 ± 0.048
Lipoamide acyltransferase component of branched-chain alpha-keto acid dehydrogenase complex, mitochondrial L172N, P11182	-0.127 ± 0.07
Lipoamide acyltransferase component of branched-chain alpha-keto acid dehydrogenase complex, mitochondrial L172P, P11182	-0.226 ± 0.057
Lipoamide acyltransferase component of branched-chain alpha-keto acid dehydrogenase complex, mitochondrial L172Q, P11182	-0.428 ± 0.32
Lipoamide acyltransferase component of branched-chain alpha-keto acid dehydrogenase complex, mitochondrial L172R, P11182	-0.347 ± 0.049
Lipoamide acyltransferase component of branched-chain alpha-keto acid dehydrogenase complex, mitochondrial L172S, P11182	-0.251 ± 0.045
Lipoamide acyltransferase component of branched-chain alpha-keto acid dehydrogenase complex, mitochondrial L172T, P11182	-0.085 ± 0.1
Lipoamide acyltransferase component of branched-chain alpha-keto acid dehydrogenase complex, mitochondrial L172V, P11182	-0.107 ± 0.039
Lipoamide acyltransferase component of branched-chain alpha-keto acid dehydrogenase complex, mitochondrial L172W, P11182	-0.206 ± 0.061
Lipoamide acyltransferase component of branched-chain alpha-keto acid dehydrogenase complex, mitochondrial L172Y, P11182	-0.139 ± 0.07
Lipoamide acyltransferase component of branched-chain alpha-keto acid dehydrogenase complex, mitochondrial L180C, P11182	-0.421 ± 0.055
Lipoamide acyltransferase component of branched-chain alpha-keto acid dehydrogenase complex, mitochondrial L180D, P11182	-0.895 ± 0.16
Lipoamide acyltransferase component of branched-chain alpha-keto acid dehydrogenase complex, mitochondrial L180E, P11182	-0.438 ± 0.047
Lipoamide acyltransferase component of branched-chain alpha-keto acid dehydrogenase complex, mitochondrial L180F, P11182	-0.027 ± 0.095
Lipoamide acyltransferase component of branched-chain alpha-keto acid dehydrogenase complex, mitochondrial L180G, P11182	-0.609 ± 0.041
Lipoamide acyltransferase component of branched-chain alpha-keto acid dehydrogenase complex, mitochondrial L180H, P11182	-0.938 ± 0.17
Lipoamide acyltransferase component of branched-chain alpha-keto acid dehydrogenase complex, mitochondrial L180I, P11182	-0.194 ± 0.11
Lipoamide acyltransferase component of branched-chain alpha-keto acid dehydrogenase complex, mitochondrial L180K, P11182	-0.296 ± 0.2
